The target of experiment [1] is OX40 in the PathHunter U2OS OX40 Signaling Assay (DiscoverX) cells. Put plainly: cell-based or functional assay.
In experiment [2] the target is T1, OX40 on activated T cells (PBMCs activated with Human T cell Activator Dynabeads) (human, UniProt P43489 29-277).
T1 construct: Native OX40 on donor PBMC T cells; also called OX40 on CD8+ T cells (low levels); OX40 on CD4+ T cells (high levels)
T1 sequence: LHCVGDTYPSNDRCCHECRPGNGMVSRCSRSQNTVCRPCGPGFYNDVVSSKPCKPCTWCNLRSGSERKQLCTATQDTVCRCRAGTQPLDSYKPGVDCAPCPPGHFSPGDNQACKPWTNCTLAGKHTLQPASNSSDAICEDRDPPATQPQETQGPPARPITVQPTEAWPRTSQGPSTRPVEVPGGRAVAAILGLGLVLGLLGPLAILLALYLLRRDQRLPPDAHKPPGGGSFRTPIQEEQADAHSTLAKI
Put plainly: flow cytometry on activated PBMC T cells.

B1: Anti-OX40 #1-IgM (antibody, V domains shown)
VH: QVQLQESGPGLVKPSQTLSLTCAVYGGSFSSGYWNWIRKHPGKGLEYIGYISYNGITYHNPSLKSRITINRDTSKNQYSLQLNSVTPEDTAVYYCARYKYDYDGGHAMDYWGQGTLVTVSS
VL: DIQMTQSPSSLSASVGDRVTITCRASQDISNYLNWYQQKPGKAPKLLIYYTSKLHSGVPSRFSGSGSGTDYTLTISSLQPEDFATYYCQQGSALPWTFGQGTKVEIK
Regarding B1, in experiment [1], the “fold increase in NF-kB activation (RLU at the highest antibody concentration) compared to uncross-linked Anti-OX40 #1-IgG” value was 23 fold and the “fold increase in signaling activation (RLU at the highest antibody concentration) compared to cross-linked Anti-OX40 #1-IgG” value stood at 13 fold.

B2: Anti-OX40 #1-IgG (antibody, V domains shown)
VH: QVQLQESGPGLVKPSQTLSLTCAVYGGSFSSGYWNWIRKHPGKGLEYIGYISYNGITYHNPSLKSRITINRDTSKNQYSLQLNSVTPEDTAVYYCARYKYDYDGGHAMDYWGQGTLVTVSS
VL: DIQMTQSPSSLSASVGDRVTITCRASQDISNYLNWYQQKPGKAPKLLIYYTSKLHSGVPSRFSGSGSGTDYTLTISSLQPEDFATYYCQQGSALPWTFGQGTKVEIK
notes: VH and VL put into an IgG format by standard cloning; It was detected with anti-human kappa light chain, so the light chain is kappa; also called anti-OX40 IgG #1
Turning to B2, in experiment [2], the binding result was “binds”.

The values above are taken from US20190330374A1 (IGM BIOSCIENCES, published 2019).
